We go through 72 sequences from the supplement of paper PMC10567573.

This data set in a line: protein stability index of a GFP-peptide fusion (GPS, HEK-293T) (PSI 1-6); higher = more stable.
Where [1] appears, read: treatment: DMSO, c terminus: a fixed tail appended.
Setting [2] is: treatment: MLN4924 1 uM, 8 h, c terminus: a fixed tail appended.

± gives the standard deviation.
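Also: 24-mer peptide tiles fused after GFP, lentivirally expressed, FACS-sorted into six equal bins by GFP/DsRed ratio, decoded by Illumina sequencing, PSI is the read-weighted mean bin number.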

For the sequence KEYTTRTQAPPSVILGVTNPFFAK [DENND6A], the protein stability index under setting [1] was 2.81 ± 0.24 and the protein stability index under setting [2] was 2.738 ± 0.021.
Taken in the same sequence, the figures for SSDSVGGFRYSERYDPEPKSKWDE [CLINT1] were 4.98 ± 0.29 and 4.95 ± 0.091.
With LLCPETYVWVPIEQCLPSLENSKY [ATE1], the protein stability index was determined as 2.19 ± 0.15 under setting [1] and 2.03 ± 0.18 under setting [2].
Taken in the same sequence, the figures for RALRKMVSNMSGPSGEEEAKVGPG [CBY2] were 4.82 ± 0.23 and 4.87 ± 0.25.
Taken in the same sequence, the figures for PKVSDQALVSAHSEWQRKLEAAEA [DMRTC1] were 4.54 ± 0.23 and 4.66 ± 0.29.
Consider DRTSLATFHEGKHNISHMSMDIAR [WDFY1], for which the protein stability index stood at 3.54 ± 0.24 under setting [1] and 3.56 ± 0.33 under setting [2].
Turning to KSERRNLLEDDSDEEEDFFLRGPS [VAMP4], the protein stability index was found to be 5.09 ± 0.26 under setting [1] and 5.15 ± 0.66 under setting [2].
With RGTGQLNRFVQLSGRPHLPGKKKI [KLHDC10], the protein stability index was 2.99 ± 0.2 under setting [1] and 3.03 ± 0.26 under setting [2].
Taken in the same sequence, the figures for WKDLTLSTRPEEGCSLHEEDTQRH [TCAP] were 5.08 ± 0.25 and 5.13 ± 0.28.
Consider LEFSLLSYAFGKFPTVVWTWWIMF [SOAT1], for which the protein stability index is 2.98 ± 0.6 under setting [1] and 2.95 ± 0.59 under setting [2].
Taken in the same sequence, the figures for DTMQNIESTIVELGSIFQQLAHMV [STX5] were 2.47 ± 0.13 and 2.52 ± 0.38.
Taken in the same sequence, the figures for ELKRLVESRRQQILREFEELHRRL [TRIM39] were 2.44 ± 0.31 and 2.72 ± 0.38.
Consider GISALVEIPKNCVVAAVGKELIIF [WDR41], for which the protein stability index runs as follows: under setting [1], 2.01 ± 1.1; under setting [2], 2.69 ± 1.3.
For TANTFRVMFKEPIEILPNVCYTAC [BTBD1], in that order: 2.46 ± 0.44 and 2.18 ± 0.3.
Regarding LKMSYSRGLIPVKRGPSSRSGGPP [RBMY1A1], the protein stability index runs as follows: under setting [1], 2.95 ± 0.25; under setting [2], 3.16 ± 0.37.
Taken in the same sequence, the figures for DVRQNPCGSKACRRLFGPVDSEQL [CDKN1A] were 3.03 ± 0.2 and 3.12 ± 0.28.
Taken in the same sequence, the figures for KRSAPSGPVRSSSGMGGRAPVSRG [RBMX] were 4.59 ± 0.25 and 4.57 ± 0.16.
With VLKDELQLYGDAPGEVVPSGESGL [TMEM40], the protein stability index was determined as 5.14 ± 0.24 under setting [1] and 5.26 ± 0.23 under setting [2].
Turning to EPFPSSDDSPRSALAAATAAAAAA [SPAG8], the protein stability index stood at 5.2 ± 0.16 under setting [1] and 5.05 ± 0.18 under setting [2].
Taken in the same sequence, the figures for LQDMLDGFIKKFVLCPECENPETD [EIF5] were 3.19 ± 0.43 and 3.34 ± 0.12.
Taken in the same sequence, the figures for DAGEGIQCSQRMLSFSDALLSIIA [TMEM175] were 2.25 ± 0.091 and 2.35 ± 0.3.
For RQILHLITMMALKVLGELNILPNT [TENT5D], in that order: 3.42 ± 0.64 and 2.81 ± 0.1.
Consider YRIRQVNIYYYLEDDSMSVIEPVV [EFHC1], for which the protein stability index came out at 2.87 ± 0.31 under setting [1] and 2.55 ± 0.55 under setting [2].
Taken in the same sequence, the figures for AADVWSLGVALFTMLAGHYPFQDS [TRIB3] were 2.96 ± 0.098 and 2.94 ± 0.2.
Taken in the same sequence, the figures for ANSDRASIGRRRTELRRSGSSRSP [PLEKHN1] were 4.79 ± 0.3 and 5.2 ± 0.21.
For CPEGLEELLSAPPPDLGAQRRHGW [SPSB2], in that order: 3.8 ± 0.34 and 3.83 ± 0.25.
As for LPSDGDHQVPTTAGNKAALLDQIR [WASL], the protein stability index reads like this: under setting [1], 4.73 ± 0.24; under setting [2], 4.1 ± 0.84.
For QQREKLSLIRKHAQTFIALCATDF [CCND2], in that order: 2.25 ± 0.22 and 2.44 ± 0.13.
For MPSPTDVVLPGAVSLRYSGATAAS [ADAMTS4], in that order: 4.16 ± 0.3 and 4.25 ± 0.32.
For VVKRREGPAGHSKGELAPELGEEP [POLD4], in that order: 5.46 ± 0.087 and 5.14 ± 0.36.
PFIVFGATGLTSGLLSLLLPETLN [SLC22A15]: the protein stability index is, setting by setting: under setting [1], 3.19 ± 0.49; under setting [2], 3.14 ± 0.42.
For LENAEVLELTVRRVQGVLRGRARE [HES6], in that order: 3.81 ± 0.33 and 3.88 ± 0.19.
Take EGRLERRECGLAAPRFSFNDPSGS [IRX6]: the protein stability index under setting [1] stood at 3.79 ± 0.27 and the protein stability index under setting [2] came to 3.98 ± 0.2.
Take IPPAAMLDQAPKARKYFERLPGGG [DYRK1B]: the protein stability index under setting [1] worked out at 3.72 ± 0.27 and the protein stability index under setting [2] came to 3.64 ± 0.061.
Taken in the same sequence, the figures for SPPDQPAVPHPPPSTPIKLEEGDG [ADD1] were 5.56 ± 0.2 and 5.62 ± 0.18.
Taken in the same sequence, the figures for GTAHIPPTMHLESPALQVMGPAQE [ZNF449] were 4.78 ± 0.25 and 4.73 ± 0.17.
Taken in the same sequence, the figures for AAAEFSSLLRRIKGKLFTWNILKT [SLC35F2] were 3.05 ± 0.56 and 2.94 ± 0.28.
Turning to ATFVDKKRDLLGALKYWKKAMNMR [FEM1C], the protein stability index by setting is: under setting [1], 1.95 ± 0.17; under setting [2], 2.13 ± 0.46.
Taken in the same sequence, the figures for ARDRQPSDFKTDKEGGQAGSGQRV [ELOA2] were 5.26 ± 0.33 and 5.26 ± 0.26.
For KNDSLRKRYDGLKYDVKKVEEVVY [TSN], in that order: 3.18 ± 0.22 and 3.32 ± 0.33.
For IHPKSIDLDNYFTARRLLSQVRAL [NFE2L1], in that order: 2.25 ± 0.32 and 2.54 ± 0.18.
In the case of WCLVQICEKYLPGYYSEKLEAIQL [TBC1D10A], the protein stability index by setting is: under setting [1], 2.74 ± 0.48; under setting [2], 3.57 ± 0.41.
In the case of KTVLMIAIQLLSRMEYVHSKNLIY [CSNK1G1], the protein stability index came to 3.04 ± 0.1 under setting [1] and 3.23 ± 0.54 under setting [2].
For KQLEPLVAPLADGKVAVGQDDLTV [VPS39], in that order: 5.14 ± 0.27 and 5.18 ± 0.21.
Taken in the same sequence, the figures for FSALYWFNYELVKSWLNGFRPKDQ [SLC25A39] were 2.2 ± 0.39 and 2.61 ± 0.92.
REAFPSWSSRSPQERSRVLNQVAD [ALDH8A1]: the protein stability index worked out at 4.2 ± 0.33 under setting [1] and 4.233 ± 0.03 under setting [2].
For NAGLSHTEYQIVTDPGDVPAFLKW [SLC2A12], in that order: 2.92 ± 0.3 and 3.1 ± 0.34.
For YNALKLFMEMNQKLFDDCTQQFKA [PPP2R5C], in that order: 2.46 ± 0.22 and 2.2 ± 0.24.
For GFTDRREARKYASNLLKAGFIRHT [DVL3], in that order: 2.66 ± 0.28 and 2.71 ± 0.32.
Turning to ARRESGGRPIKPPKKDLEDGEVPQ [BRD3], the protein stability index is, setting by setting: under setting [1], 5.58 ± 0.21; under setting [2], 5.38 ± 0.32.
In the case of ELAYMKKNHEEEMKEFSNQVVGQV [KRT13], the protein stability index runs as follows: under setting [1], 4.7 ± 0.26; under setting [2], 4.66 ± 0.14.
Consider VGVRMRDVKCYQGTDIVRGCDPLV [ADAMTSL2], for which the protein stability index runs as follows: under setting [1], 3.01 ± 0.29; under setting [2], 3.09 ± 0.45.
TKTEDRELVLRKDCPKIVEPHGKM [ZSCAN9]: the protein stability index was determined as 4.79 ± 0.083 under setting [1] and 4.72 ± 0.28 under setting [2].
Consider TSVFQKKLCTAHMCSTLEHNCAHF [MATN2], for which the protein stability index was found to be 2.47 ± 0.22 under setting [1] and 2.8 ± 0.34 under setting [2].
Sequence YRDLAGGTGRSAKEQVLRKGTENL [FCHSD1] displayed a protein stability index under setting [1] of 4.16 ± 0.18 and a protein stability index under setting [2] of 4.2 ± 0.33.
For EAVARHMLIFSLALEEPEKMGLQE [DNAAF3], in that order: 2.47 ± 0.55 and 2.28 ± 0.27.
As for STRPEEGCSLHEEDTQRHETYHQQ [TCAP], the protein stability index amounted to 5.47 ± 0.21 under setting [1] and 5.47 ± 0.2 under setting [2].
For PTTGRVYESDSSNHCMLSPSSSGH [C18orf25], in that order: 4.24 ± 0.24 and 4.52 ± 0.052.
In the case of GGSRGAPGLLMAVGQDLYCYSYS [DCAF4], the protein stability index reads like this: (treatment: DMSO, c terminus: native) 3.16 ± 0.42; (treatment: MLN4924 1 uM, 8 h, c terminus: native) 3.1 ± 1.5.
As to EPSIAPTSCAGNLPSRPPPLLSPL [RSPH3], the protein stability index runs as follows: under setting [1], 3.72 ± 0.2; under setting [2], 3.83 ± 0.14.
In the case of AKMLLHEGQHPAQLRSDVCTPGGT [PYCR3], the protein stability index is, setting by setting: under setting [1], 4.29 ± 0.5; under setting [2], 4.58 ± 0.9.
Taken in the same sequence, the figures for LDYTADEDGVWYSVAPMNVRRGLA [KLHL12] were 2.41 ± 0.81 and 2.99 ± 0.47.
Regarding VVLPGAVSLRYSGATAASETLSGH [ADAMTS4], the protein stability index under setting [1] was found to be 2.95 ± 0.46 and the protein stability index under setting [2] is 2.96 ± 0.41.
On to SLGSALKPGEGRSALFAGNEWRRP [TRIM29], for which the protein stability index is 3.46 ± 0.26 under setting [1] and 3.31 ± 0.21 under setting [2].
For NIADIEEKRGFTSHFVFVIEVKTK [NCF4], in that order: 2.47 ± 0.74 and 2.62 ± 0.44.
For GIFPLSFVKILKDFPEEDDPTNWL [NCF4], in that order: 2.6 ± 0.28 and 2.82 ± 0.33.
Take IRQYRLKKISKEEKTPGCVKIKKC [KRAS]: the protein stability index under setting [2] came out at 3.31 ± 0.24.
As for GRNHTPFLGHHSFSVRPGTEATIS [SCNN1D], the protein stability index amounted to 3.65 ± 0.14 under setting [1] and 3.78 ± 0.25 under setting [2].
As to SMKGSCGIGGGIGGGSSRISSVLA [KRT16], the protein stability index reads like this: under setting [1], 2.54 ± 0.42; under setting [2], 2.64 ± 0.33.
For the sequence CFGLQPGCLLPDGSRMMAVAALVV [NLN], the protein stability index came out at 2.47 ± 0.23 under setting [1] and 2.75 ± 0.34 under setting [2].
Taken in the same sequence, the figures for MMGLAQIYKKYALQSAAGKDAAKQ [PDS5B] were 2.8 ± 0.27 and 3.23 ± 0.1.
For ERVTVAKLTLENFYSNLILQHEER [STK38L], in that order: 2.85 ± 0.28 and 2.99 ± 0.31.
